Source: patent US20240093191A1, “COMPOSITIONS AND METHODS FOR TREATING DISEASE ASSOCIATED WITH DUX4 OVEREXPRESSION” (RESEARCH INSTITUTE AT NATIONWIDE CHILDREN'S HOSPITAL, priority 2021, published 2024)

Legend:
DUX4 protein = test: Western blot of V5-tagged DUX4 protein in co-transfected HEK293 cells; type: cell-based, human; conditions: for Average inhibition efficiency (%) of DUX4 protein levels: CMV.DUX4-FL/CMV.eGFP, molar ratio 1 to 3, eGFP normalizer, relative to U6-milacZ, N = 3-8; for Average inhibition efficiency (%) of DUX4 protein levels / reduction of DUX4 protein levels compared to U6.miGFP / reduction of DUX4 protein levels compared to U6.mi405F / reduction of DUX4 protein levels relative to U6.mi405 / reduction of DUX4 protein levels: HEK293; for effect on DUX4 protein level (DUX4-FL WT): FIG. 18, HEK293 western blot; for reduction of DUX4 protein levels compared to U6.miGFP: DUX4:mi405 molar ratio 2 to 1; for reduction of DUX4 protein levels compared to U6.mi405F / reduction of DUX4 protein levels relative to U6.mi405: molar ratio 12 to 1, N=4
[1] = tested on: DUX4 ORF (RenLuc-DUX4 ORF); test: Dual-luciferase assay, RenLuc-DUX4 ORF reporter co-transfected with miDUX4 plasmids in HEK293 cells; type: cell-based, human; conditions: for reduction of Renilla luciferase activity: normalized to U6.miGFP
In short: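 HEK293 cells were co-transfected by lipofection with a psiCheck2 reporter carrying the DUX4 ORF as the Renilla luciferase 3′UTR and U6-driven miDUX4 plasmids, at increasing reporter:miRNA molar ratios. Renilla/Firefly ratio was read 24 h or 48 h post-transfection, with Firefly as transfection normaliser. Values are means ± SEM of triplicates over 3 experiments.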

[2] = DUX4:mi405 molar ratio 2 to 1, HEK293, 24 h
[3] = DUX4:mi405 molar ratio 12 to 1, HEK293, 24 h

Molecule	Average inhibition efficiency (%) of DUX4 protein levels (DUX4 protein)	effect on DUX4 protein level (DUX4-FL WT) (DUX4 protein)	reduction of Renilla luciferase activity [1, 2]	additional reduction of Renilla luciferase activity compared to U6.mi405F ([1]; DUX4:mi405 molar ratio 12 to 1)	reduction of Renilla luciferase activity [1, 3]	reduction of DUX4 protein levels compared to U6.miGFP (DUX4 protein; 24 h)	reduction of DUX4 protein levels compared to U6.mi405F (DUX4 protein; 24 h)	reduction of DUX4 protein levels relative to U6.mi405 (DUX4 protein; 24 h)	other results
H1.mir-675: commercially available H1 promoter mir-675 expression plasmid (SBI Biosciences) (nucleic acid) DNA: GAACGCTGACGTCATCAACCCGCTCCAAGGAATCGCGGGCCCAGTGTCACTAGGCGGGAACACCCAGCGCGCGTGCGCCCTGGCAGGAAGATGGCTGTGAGGGACAGGGGAGTGGCGCCCTGCAATATTTGCATGTCGCTATGTGTTCTGGGAAATCACCATAAACGTGAAATGTCTTTGGATTTGGGAATCTTATAAGTTCTGTATGAGACCACCCCCCAGGGTCTGGTGCGGAGAGGGCCCACAGTGGACTTGGTGACGCTGTATGCCCTCACCGCTCAGCCCCTGGGGAATTCTTCGATTCTGCTTTTTT	68 ± 5 (N = 4) %	reduce DUX4 protein level	–	–	–	–	–	–	–
U6.mi405H: mi405 construct with altered flanking sequences (nucleic acid) DNA: ACGCCGCCATCTCTAGGCCCGCGCCGGCCCCCTCGCACAGACTTGTGGGAGAAGCTCGGCTACTCCCCTGCCCCGGTTAATTTGCATATAATATTTCCTAGTAACTATAGAGGCTTAATGTGCGATAAAAGACAGATAATCTGTTCTTTTTAATACTAGCTACATTTTACATGATAGGCTTGGATTTCTATAAGAGATACAAATACTAAATTATTATTTTAAAAAACAGCACAAAAGGAAACTCACCCTAACTGTAAAGTAATTGTGTGTTTTGAGACTATAAATATCCCTTGGAGAAAAGCCTTGTTTGACCGTTTAAACTCGAGTGAGCGATCCAGGATTCAGATCTGGTTTCTGTAAAGCCACAGATGGGAAACCAGATCTGAATCCTGGACTGCCTACTAGAGCGCACGCCAGTTTTTT	–	–	80±1%	25±6%	58±2%	79±6%	33±14%	60±8%	–
U6.mir-675: U6 promoter-driven mir-675 expression plasmid with 40 nt 5' and 47 nt 3' flanking sequences (nucleic acid) DNA: GACGCCGCCATCTCTAGGCCCGCGCCGGCCCCCTCGCACAGACTTGTGGGAGAAGCTCGGCTACTCCCCTGCCCCGGTTAATTTGCATATAATATTTCCTAGTAACTATAGAGGCTTAATGTGCGATAAAAGACAGATAATCTGTTCTTTTTAATACTAGCTACATTTTACATGATAGGCTTGGATTTCTATAAGAGATACAAATACTAAATTATTATTTTAAAAAACAGCACAAAAGGAAACTCACCCTAACTGTAAAGTAATTGTGTGTTTTGAGACTATAAATATCCCTTGGAGAAAAGCCTTGTTTGCGTTTAGTGAACCGTCAGATGGTACCGTTTAAACTCGAGCCCAGGGTCTGGTGCGGAGAGGGCCCACAGTGGACTTGGTGACGCTGTATGCCCTCACCGCTCAGCCCCTGGGACTAGAGCGGCCGCCACAGCGGGGAGATCCAGACATGATAAGATACATTTTTT	43±4%	reduce DUX4 protein level	–	–	–	–	–	–	reduction of DUX4 protein levels (DUX4 protein; AAV.CMV.DUX4-FL co-transfection, 24 h, β-actin normalizer, relative to U6.milacZ): 46±11%
U6.mi405G: mi405 construct with altered flanking sequences (nucleic acid) DNA: ACGCCGCCATCTCTAGGCCCGCGCCGGCCCCCTCGCACAGACTTGTGGGAGAAGCTCGGCTACTCCCCTGCCCCGGTTAATTTGCATATAATATTTCCTAGTAACTATAGAGGCTTAATGTGCGATAAAAGACAGATAATCTGTTCTTTTTAATACTAGCTACATTTTACATGATAGGCTTGGATTTCTATAAGAGATACAAATACTAAATTATTATTTTAAAAAACAGCACAAAAGGAAACTCACCCTAACTGTAAAGTAATTGTGTGTTTTGAGACTATAAATATCCCTTGGAGAAAAGCCTTGTTTGACCGTTTAAACTCGAGTGAGCGATCCAGGATTCAGATCTGGTTTCTGTAAAGCCACAGATGGGAAACCAGATCTGAATCCTGGACTGCCTACTAGAGAATTCTTCGATTCTGCTTTTTT	–	–	81±1%	26±5%	59±2%	88±2%	52±9%	71±5%	–
U6.mi405F: mi405 with one G at 5' end and 16 mer 3' flanking sequence with single CNNC motif (nucleic acid) DNA: ACGCCGCCATCTCTAGGCCCGCGCCGGCCCCCTCGCACAGACTTGTGGGAGAAGCTCGGCTACTCCCCTGCCCCGGTTAATTTGCATATAATATTTCCTAGTAACTATAGAGGCTTAATGTGCGATAAAAGACAGATAATCTGTTCTTTTTAATACTAGCTACATTTTACATGATAGGCTTGGATTTCTATAAGAGATACAAATACTAAATTATTATTTTAAAAAACAGCACAAAAGGAAACTCACCCTAACTGTAAAGTAATTGTGTGTTTTGAGACTATAAATATCCCTTGGAGAAAAGCCTTGTTTGCTCGAGTGAGCGATCCAGGATTCAGATCTGGTTTCTGTAAAGCCACAGATGGGAAACCAGATCTGAATCCTGGACTGCCTACTAGTAATTCTTCGATTCTGCTTTTTT	–	–	77±1%	–	45±4%	81±9%	–	40±5%	reduction of relative Renilla luciferase activity ([1]; 1:4 DUX4:mi405 molar ratio, HEK293, 24 h, normalized to miGFP): 89±1%; decrease of relative Renilla luciferase activity compared to U6.mi405 ([1]; DUX4:mi405 molar ratio 8:1, 24 h): 48±6%; decrease of relative Renilla luciferase activity compared to U6.mi405 ([1]; DUX4:miDUX4 molar ratio 1:1): 33±2%; decrease of relative Renilla luciferase activity compared to U6.mi405 ([1]; DUX4:miDUX4 molar ratio 1:2): 32±2%; decrease of relative Renilla luciferase activity compared to U6.mi405 ([1]; DUX4:miDUX4 molar ratio 1:3): 34±1%; decrease of relative Renilla luciferase activity compared to U6.mi405 ([1]; DUX4:miDUX4 molar ratio 1:4): 32±1%; relative Renilla luciferase activity reached ([1]; DUX4:miDUX4 molar ratio 8:1): 38±2%; more efficient than U6.mi405 in reducing relative Renilla luciferase activity ([1]; DUX4:miDUX4 molar ratio 40:1): 13±2%; increase of inhibition efficiency compared to U6.mi405 (western blot) (DUX4 protein; 1:4 DUX4:mi405 molar ratio, 24 h): 20%; reduction of DUX4 protein levels (DUX4 protein; 1:4 DUX4:mi405 molar ratio, 24 h, normalized to miGFP, N=2): 99±1%
